Measured values: patent publication US20260347449 (published 2026)
Where a chain is given by its changes, count along the chain named. Read-outs that look alike come from different tables or passages of the source. Blank lines part the entries; values can stand above or below the binder they belong to.

Columns and labels:
[1] = target: T1, human C3 (human, UniProt P01024); assay: BLI
[2] = target: T2, human C5 (human, UniProt P01031); assay: BLI
[3] = target: human C5 W917S (human, UniProt P01031); assay: BLI
[4] = target: T1, human C3; assay: ELISA
[5] = target: T2, human C5; assay: ELISA
[6] = target: T1, human C3; assay: BLI; remark: listed apart in the source
[7] = target: T1, human C3; assay: BLI; remark: listed apart in the source
[8] = target: T2, human C5; assay: BLI; remark: listed apart in the source
[9] = target: T3, cynomolgus C5 (cynomolgus); assay: BLI
T3 chain: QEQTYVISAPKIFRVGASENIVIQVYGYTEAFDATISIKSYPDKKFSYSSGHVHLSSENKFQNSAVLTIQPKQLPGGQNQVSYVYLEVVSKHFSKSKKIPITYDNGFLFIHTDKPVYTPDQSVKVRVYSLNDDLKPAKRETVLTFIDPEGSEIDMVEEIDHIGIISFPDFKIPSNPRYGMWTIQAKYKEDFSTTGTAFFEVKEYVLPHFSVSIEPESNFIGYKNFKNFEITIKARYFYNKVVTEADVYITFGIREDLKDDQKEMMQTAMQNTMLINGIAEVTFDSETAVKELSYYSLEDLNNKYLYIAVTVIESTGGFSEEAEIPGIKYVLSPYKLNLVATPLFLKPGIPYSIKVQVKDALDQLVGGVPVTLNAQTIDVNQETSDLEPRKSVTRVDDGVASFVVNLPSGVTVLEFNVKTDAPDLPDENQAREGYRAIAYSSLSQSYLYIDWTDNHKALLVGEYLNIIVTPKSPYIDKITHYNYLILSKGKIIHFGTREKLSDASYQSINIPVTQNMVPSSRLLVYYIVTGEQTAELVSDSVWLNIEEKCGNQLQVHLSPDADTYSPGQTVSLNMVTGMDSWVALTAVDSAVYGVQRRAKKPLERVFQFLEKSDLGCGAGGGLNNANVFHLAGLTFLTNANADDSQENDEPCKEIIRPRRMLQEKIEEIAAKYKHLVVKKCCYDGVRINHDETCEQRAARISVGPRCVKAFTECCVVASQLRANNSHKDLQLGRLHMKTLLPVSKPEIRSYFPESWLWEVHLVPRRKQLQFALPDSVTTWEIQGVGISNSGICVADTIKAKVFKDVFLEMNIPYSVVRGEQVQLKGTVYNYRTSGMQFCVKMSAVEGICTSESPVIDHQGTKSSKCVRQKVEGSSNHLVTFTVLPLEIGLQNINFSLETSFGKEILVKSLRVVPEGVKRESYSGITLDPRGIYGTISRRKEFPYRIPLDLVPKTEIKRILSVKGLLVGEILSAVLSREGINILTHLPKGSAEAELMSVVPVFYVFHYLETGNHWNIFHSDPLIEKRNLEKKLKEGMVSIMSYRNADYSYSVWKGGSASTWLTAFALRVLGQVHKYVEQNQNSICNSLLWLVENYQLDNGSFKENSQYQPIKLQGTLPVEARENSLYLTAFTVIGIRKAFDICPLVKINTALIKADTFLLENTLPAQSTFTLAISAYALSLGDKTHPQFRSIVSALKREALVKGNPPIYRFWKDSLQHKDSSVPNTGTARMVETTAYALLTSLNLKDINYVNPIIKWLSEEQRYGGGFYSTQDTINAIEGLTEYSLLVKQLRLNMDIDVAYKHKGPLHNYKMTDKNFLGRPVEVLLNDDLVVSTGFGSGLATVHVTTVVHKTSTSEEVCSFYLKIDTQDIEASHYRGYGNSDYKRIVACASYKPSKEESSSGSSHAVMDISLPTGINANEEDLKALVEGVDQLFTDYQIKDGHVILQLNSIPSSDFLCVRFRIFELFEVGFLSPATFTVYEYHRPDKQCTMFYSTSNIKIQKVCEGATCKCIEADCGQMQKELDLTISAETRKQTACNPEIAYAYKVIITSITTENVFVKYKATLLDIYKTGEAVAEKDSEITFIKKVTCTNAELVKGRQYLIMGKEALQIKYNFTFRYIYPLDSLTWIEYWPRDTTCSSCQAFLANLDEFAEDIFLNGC

[10] = target: T1, human C3; assay: BLI, bivalent
[11] = target: T1, human C3; assay: BLI; remark: listed apart in the source
[12] = target: T2, human C5; assay: BLI; remark: listed apart in the source

B1: C3S6 (antibody, V domains shown)
VH: QVQLQESGGGLVQAGGSLRLSCAASGNIFVGHGMGWYRQAPGKEREFVAAIGYGAITNYADSVKGRFTISRDNAKNTVYLQMNSLKPEDTAVYYCAASSYYPPRYWYWGQGTLVTVSS
- Kd [1]: 20 nM

B5: eculizumab (antibody, V domains shown)
VH: QVQLVQSGAEVKKPGASVKVSCKASGYIFSNYWIQWVRQAPGQGLEWMGEILPGSGSTEYTENFKDRVTMTRDTSTSTVYMELSSLRSEDTAVYYCARYFFGSSPNWYFDVWGQGTLVTVSS
VL: DIQMTQSPSSLSASVGDRVTITCGASENIYGALNWYQQKPGKAPKLLIYGATNLADGVPSRFSGSGSGTDFTLTISSLQPEDFATYYCQNVLNTPLTFGQGTKVEIKR
- binding result [3]: no binding

B6: C3S10 (antibody, V domains shown)
VH: QVQLQESGGGLVQAGGSLRLSCAASGYISGGSIMGWYRQAPGKEREFVAGINQGSNTYYADSVKGRFTISRDNAKNTVYLQMNSLKPEDTAVYYCAVGGRSYYYHHYWGQGTQVTVSS
- binding result [4]: no binding

B7: C5S12 (antibody, V domains shown)
VH: QVQLQESGGGLVQAGGSLRLSCAASGYIFPSDDMGWYRQAPGKEREFVAAINDGASTYYADSVKGRFTISRDNAKNTVYLQMNSLKPEDTAVYYCAVQLNYYWDYVYWGQGTQVTVSS
- binding result [5]: no binding

B8: C3S3.2 (antibody, V domains shown)
VH: EVQLVESGGGLVQAGGSLRLSCAASGTIFSRNYMGWYRQAPGKERELVAGIGYGSSTNYADSVKGRFTISRDNSKNTLYLQMNSLRPEDTAVYYCAAVPTYRPYYFYWGQGTLVTVSS
- Kd [6]: 6 nM
- Kd [7]: 5.83 nM
- binding result [8]: no binding
- binding result [9]: no binding

B9: C3S3 (antibody, V domains shown)
VH: B8 VH with E1Q, V5Q, S74A, L78V, R86K, L113Q
- Kd [1]: 23 nM
- Kd [7]: 4.97 nM
- binding result [8]: no binding
- binding result [9]: no binding

B12: C5S5 (antibody, V domains shown)
VH: QVQLQESGGGLVQAGGSLRLSCAASGTISPYEGMGWYRQAPGKERELVAAIDGGGITYYADSVKGRFTISRDNAKNTVYLQMNSLKPEDTAVYYCAAGIWTLSYYDYWGQGTQVTVSS
- Kd [2]: 13 nM

B13: C5S1 (antibody, V domains shown)
VH: QVQLQESGGGLVQAGGSLRLSCAASGYISYDDDMGWYRQAPGKEREFVAAIDVGGSTYYADSVKGRFTISRDNAKNTVYLQMNSLKPEDTAVYYCAVRDGYYWDHDYWGQGTQVTVSS
- Kd [2]: 9.5 nM

B14: C3I4 (antibody, V domains shown)
VH: DVQLVESGGGLVQPGGSLRLSCATSGFTLDYYAIGWFRQAPGKEREGVSCITGPDGSTHYADSVKGRFTISRDNAKNTVYLQMNSLKPEDTAVYYCAATAGLYGCGYGMDHWGKGTQVTVSS
- Kd [1]: 27 nM

B15: C3N10.3 (antibody, V domains shown)
VH: EVQLVESGGGLVQAGGSLRLACAASGLTFSPYAMGWFRQAPGKEREFVAGIRWISGNPYYADSVKGRFTISRDNSKNTLYLQMNSLRPEDTAVYSCAAAPLTRSYDYWGQGTLVTVSS
- Kd [6]: 5 nM
- Kd [7]: 5.32 nM
- binding result [8]: no binding
- binding result [9]: no binding

B16: C3N10.3-Fc (antibody, V domains shown)
VH: B15 VH
- Kd [10]: 3.25 nM

B17: C3N10 (antibody, V domains shown)
VH: B15 VH with E1D, S75A, L79V, R87K, L113Q
- Kd [1]: 7.6 nM
- Kd [7]: 3.64 nM
- binding result [8]: no binding
- binding result [9]: no binding

B20: C3I8 (designed binder)
chain: DVQLVESGGGLVQPGGSLRLSCATSGFSFGVYDMSWVRQASGKGLEWVSGIDSGSNTAYADSVKVRFTISRDNAKNTLYLQMNNLKPEDTAVYYCALGRETDYIPVTDFRTQGTQVTVSS
- Kd [1]: 4.8 nM

Results, then the binder that gave them:

- Kd [2]: 7 nM
B2: C5S8 (antibody, V domains shown)
VH: QVQLQESGGGLVQAGGSLRLSCAASGNIFDEWDMGWYRQAPGKEREFVAAIDDGASTYYADSVKGRFTISRDNAKNTVYLQMNSLKPEDTAVYYCAARQTYAWDYRYWGQGTQVTVSS

- Kd [1]: 14 nM
B3: C3S8 (antibody, V domains shown)
VH: QVQLQESGGGLVQAGGSLRLSCAASGTIFPTDRMGWYRQAPGKEREFVATIDLGGTTNYADSVKGRFTISRDNAKNTVYLQMNSLKPEDTAVYYCAAAWEGPSRYGRHRYYSHRYWGQGTQVTVSS

- Kd [1]: 3.9 nM
B4: C3I22 (antibody, V domains shown)
VH: DVQLVESGGGLVQPGGSLRLSCTASGFTFGVYAMSWVRQAPGKGLEWVSSIDSGVNTAYADSVKGRFTISRDNAINTVFLQMNSLKPEDTAVYHCALGRESDYEPVTGSWGQGTQVTVSS

- Kd [10]: 0.703 nM
B10: C3S3.2-Fc (antibody, V domains shown)
VH: B8 VH

- binding result [4]: no binding
B11: C3S5 (antibody, V domains shown)
VH: QVQLQESGGGLVQAGGSLRLSCAASGTIFDDESMGWYRQAPGKEREFVASINYGSTTYYADSVKGRFTISRDNAKNTVYLQMNSLKPEDTAVYYCAVGWSTNYDWTLSYYYWGQGTLVTVSS

- Kd [2]: 1.98 nM
- binding result [11]: no binding
- Kd [12]: 6.29 nM
- binding result [9]: no binding
B18: C5S2 (antibody, V domains shown)
VH: QVQLQESGGGLVQAGGSLRLSCAASGNIFHQSDMGWYRQAPGKEREFVAAIDYGTNTYYADSVKGRFTISRDNAKNTVYLQMNSLKPEDTAVYYCAARDTSYWDHVYWGQGTQVTVSS

- Kd [1]: 17 nM
B19: C3I3 (antibody, V domains shown)
VH: DVQLVESGGGLVQPGGSLRLSCAASGFTLDNYAIAWFRQAPGKEREGVSCISSSRGSTAYEDSVKGRFTIARDNAKNTVYLQMNSLKPEDTAVYYCAARARGMCREFDYDYWGQGTQVTVSS
